The record followed here is the Immune Epitope Database (IEDB).

One assay addresses HLA-A*24:02. Nature of the assay: IEDB peptide-MHC binding, purified MHC/competitive/fluorescence; ≥ and ≤ were set here for values at or beyond the usual limits of such assays.
The target of assay [1] is HLA-A*02:01. Described as above.
Assay [2] concerns the target HLA-B*15:01. The assay is described as above.
The next assay concerns the target HLA-A*68:02. Briefly: IEDB peptide-MHC binding, purified MHC/competitive/radioactivity; filed as Kd, often an IC50 or EC50 that approximates it; ≥ and ≤ were set here for values at or beyond the usual limits of such assays.
Assay [3] concerns the target HLA-B*07:02. The description is as above.
In the next assay the target is HLA-A*32:01. The description is as above. As to conditions: source organism: Vaccinia virus WR.
The target in another assay is HLA-A*24:03. Briefly: IEDB peptide-MHC binding, purified MHC/direct/fluorescence; filed as Kd, often an IC50 or EC50 that approximates it; ≥ and ≤ were set here for values at or beyond the usual limits of such assays.
In a further assay the target is HLA-A*31:01. The description is as above.
In the next assay the target is HLA-A*11:01. Described as above.
Assay [4] concerns the target HLA-B*07:02. The description is as above.
The next assay deals with HLA-B*44:02. The assay is described as above.
The target in assay [5] is HLA-A*02:01. The assay is described as above.
Another assay concerns the target HLA-A*69:01. The description is as above.
In the next assay the target is HLA-A*01:01. The description is as above.
A further assay deals with HLA-A*26:01. Described as above.
The target of assay [6] is HLA-B*15:01. Described as above.
In a further assay the target is HLA-B*40:01. The assay is described as above.
The target of another assay is HLA-B*27:05. The description is as above.
The target of another assay is HLA-B*08:01. The description is as above.
A further assay concerns the target HLA-A*03:01. Described as above.
The target in another assay is HLA-B*58:01. Described as above.
The target in a further assay is HLA-B*57:01. The description is as above. As to conditions: source organism: Giardia lamblia ATCC 50803.
Where [7] appears, read: source organism: Sudan ebolavirus.
Setting [8] is: source organism: Zaire ebolavirus.
The mark [9] stands for this setting: source organism: Vaccinia virus.
Where [10] appears, read: source organism: Dengue virus 1 Brazil/97-11/1997.
[11] abbreviates: source organism: Giardia lamblia ATCC 50803.
The mark [12] stands for this setting: source organism: Vibrio cholerae.
The mark [13] stands for this setting: source organism: Pasteurella multocida.
The mark [14] stands for this setting: source organism: Histophilus somni.

For orientation: IC50 means the point on the concentration scale where inhibition reaches its midpoint. High values mean lower potency, low ones higher potency. Consider LLQLPRDKF, for which the figures for the IC50 with HLA-A*24:02 (setting [7]), in the assay with HLA-A*02:01 [1] (setting [7]) and in the assay with HLA-B*15:01 [2] (setting [7]) were 4.77 µM, 13.3 µM and 10.6 µM, respectively.
For HMMKDEPVV, the IC50 in the assay with HLA-A*02:01 [1] (setting [8]) is 8.76 µM; in the assay with HLA-B*15:01 [2] (setting [8]) it was 46.3 µM.
The sequence SKNNIGIEY yielded an IC50 with HLA-B*15:01 [2] (setting [9]) of at least 87.2 µM.
As to VFAPKQKMF, the figures for the IC50 with HLA-A*24:02 (setting [9]) and with HLA-B*15:01 [2] (setting [9]) were 0.0261 µM and 14 µM, respectively.
As for GQQFYWPVM, the IC50 came to 0.114 µM in the assay with HLA-A*24:02 (setting [8]), 5.74 µM with HLA-A*02:01 [1] (setting [8]) and 1.52 µM with HLA-B*15:01 [2] (setting [8]).
For QQKNSQKGQ, the IC50 with HLA-B*15:01 [2] (setting [8]) is at least 93.5 µM.
One may read the Kd as the equilibrium constant for the complex coming apart. On to QMKDCMREL, for which the dissociation constant Kd with HLA-A*68:02 (source organism: Homo sapiens) was at least 60 µM.
With RPAKNGTVMD, the Kd with HLA-B*07:02 [3] (setting [10]) turned out to be 0.317 µM.
Take GVPPKVVNY: the IC50 is at least 199 µM in the assay with HLA-A*02:01 [1] (setting [8]) and at least 211 µM in the assay with HLA-B*15:01 [2] (setting [8]).
Consider LLLWFNYLF, for which the results for the IC50 with HLA-A*02:01 [1] (source organism: Variola virus) and with HLA-B*15:01 [2] (source organism: Variola virus) were 0.125 µM and at least 2970 µM, respectively. In addition, the Kd in the assay with HLA-A*32:01 worked out at 0.00145 µM.
For the sequence RPRGHREFC, the dissociation constant (Kd) in the assay with HLA-A*24:03 (setting [11]) was at least 20 µM; in the assay with HLA-A*31:01 (setting [11]), at least 20 µM; with HLA-A*11:01 (setting [11]), at least 20 µM; with HLA-B*07:02 [4] (setting [11]), 0.0984 µM; with HLA-B*44:02 (setting [11]) it was at least 20 µM; in the assay with HLA-A*02:01 [5] (setting [11]) it was at least 20 µM. Moreover, the Kd with HLA-A*69:01 (setting [11]), with HLA-A*01:01 (setting [11]), in the assay with HLA-A*26:01 (setting [11]), with HLA-B*15:01 [6] (setting [11]), with HLA-B*40:01 (setting [11]) and with HLA-B*27:05 (setting [11]) was at least 20 µM throughout. In addition, the Kd with HLA-B*08:01 (setting [11]) was 8.07 µM; with HLA-A*03:01 (setting [11]) it was at least 20 µM; with HLA-B*58:01 (setting [11]), at least 20 µM.
Regarding YMYAATNTH, the Kd with HLA-B*15:01 [6] (setting [11]) is 0.04 µM; with HLA-B*57:01 it was at least 20 µM; in the assay with HLA-B*58:01 (setting [11]), at least 20 µM.
On to TSLSMTCIAV, for which, in the assay with HLA-A*68:02 (setting [10]), the Kd is 13.5 µM.
As to AENKKFKLH, the Kd with HLA-A*31:01 (setting [12]), with HLA-A*11:01 (setting [12]), in the assay with HLA-B*07:02 [4] (setting [12]), in the assay with HLA-B*44:02 (setting [12]), with HLA-A*02:01 [5] (setting [12]) and in the assay with HLA-A*69:01 (setting [12]) was at least 20 µM throughout. In addition, the Kd was at least 20 µM with HLA-A*01:01 (setting [12]); at least 20 µM with HLA-A*26:01 (setting [12]); at least 20 µM with HLA-B*15:01 [6] (setting [12]); 2.71 µM in the assay with HLA-B*40:01 (setting [12]); at least 20 µM with HLA-B*27:05 (setting [12]); at least 20 µM in the assay with HLA-B*08:01 (setting [12]). Besides, the equilibrium dissociation constant (Kd) in the assay with HLA-A*03:01 (setting [12]) and with HLA-B*58:01 (setting [12]) was at least 20 µM each time.
With SPPPVGKAEL, the Kd with HLA-B*07:02 [3] (source organism: Dengue virus 2 Jamaica/1409/1983) was determined as 0.0673 µM.
As to QYPAFVLFI, the Kd with HLA-A*24:03 (setting [13]) is 0.00192 µM; in the assay with HLA-A*11:01 (setting [13]), 2.82 µM; with HLA-B*07:02 [4] (setting [14]) it was at least 20 µM; with HLA-A*02:01 [5] (setting [14]), at least 20 µM; with HLA-A*69:01 (setting [14]), at least 20 µM; in the assay with HLA-A*01:01 (setting [14]), at least 20 µM. Besides, the Kd with HLA-A*26:01 (setting [14]), with HLA-B*15:01 [6] (setting [14]), with HLA-B*40:01 (setting [14]), in the assay with HLA-B*27:05 (setting [14]), with HLA-B*08:01 (setting [14]) and with HLA-A*03:01 (setting [14]) was at least 20 µM in each case. The sequence further gave a Kd in the assay with HLA-B*58:01 (setting [14]) of at least 20 µM.
